In experiment [1] the target is phenylalanyl-glycyl-phenylalanyl-glycine.
The target in experiment [2] is phenylalanyl-glycyl-phenylalanyl-hydroxylglycine.

The values that follow come from patent US5871995.

Bounds are passed on as bounds.

For the substance “Enzyme expressed from plasmid SV-203 (Signal sequence + N-terminal domain + C-terminal domain) in COS-7 cells (from UniProt P14925)”, the Enzyme activity n mole/h/ml medium, PheGlyPheGly to PheGlyPhehydroxyGly (n mole/h/ml medium) in experiment [1] came out at 2.5. In addition, the Enzyme activity n mole/h/ml medium, PheGlyPhehydroxyGly to PheGlyPhe-NH2 + glyoxylic acid (n mole/h/ml medium) in experiment [2] came out at 4.2.
In the same order, the values of “Enzyme expressed from plasmid SV-a (Signal sequence + N-terminal domain) in COS-7 cells (from UniProt P14925)” are 2.8 and less than 2.
Taken in the same sequence, the figures for “Enzyme expressed from plasmid SV-b (Signal sequence + C-terminal domain) in COS-7 cells (from UniProt P14925)” were 0.4 and 10.8.
